For the test, the target named is T1, SH2 domain of Monosiga brevicollis crka1 (Monosiga brevicollis, UniProt A0A1C9VNP8 1-97).
T1 construct: seven additional amino acids left at the N-terminus after His-tag removal; For the NMR structure the same domain was made with the E. coli cell-free protein synthesis system; also called Mb-crka1 SH2; crka1 SH2 domain
T1 sequence: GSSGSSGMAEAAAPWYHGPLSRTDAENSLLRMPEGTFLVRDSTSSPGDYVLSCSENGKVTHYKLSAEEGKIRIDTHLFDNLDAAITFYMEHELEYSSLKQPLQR
Put plainly: ITC; peptide (400 uM) injected into the cell holding the SH2 domain (40 uM); 25 °C; 25 mM HEPES, pH7, 100 mM NaCl; MicroCal Auto-iTC200. As to conditions: both partners purified. On the technique in general: Isothermal titration calorimetry measures the heat released or taken up as one component is titrated into another.

Non-standard residues stand in square brackets, D forms with d. No end group written: not given here. pY = N[C@@H](Cc1ccc(OP(=O)(O)O)cc1)C(=O)O

B1: phosphopeptide EM-pYDVP-RS of S. rosetta PTSG_05573 (peptide)
peptide: EM[pY]DVPRS
notes: together with DM-pYDVP-RN it overlaps 5 of the 10 YxxP motifs; source: synthetic peptide, bought: Toray Research Center
As to B1, the binding result was “binds”.

B2: phosphopeptide DM-pYDVP-RN of S. rosetta PTSG_05573 (peptide)
peptide: DM[pY]DVPRN
notes: together with EM-pYDVP-RS it overlaps 5 of the 10 YxxP motifs; source: synthetic peptide, bought: Toray Research Center
For B2, the binding result was “binds”.
